Reference: the supplement of paper PMC10567573

B1: ATL3 (parent)
chain: EKALASILLQDHIRDLDVVVVSVA
B2: INTS4 (parent)
chain: AKQIMEETYKMEFMYSGVENKQVV

Variants of: B1
Assay: protein stability index of a GFP-peptide fusion (GPS, HEK-293T) (PSI 1-6); higher = more stable
Settings: c terminus: a fixed tail appended
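Further: lentivirally expressed fusions sorted by FACS into six bins by GFP to DsRed ratio, PSI derived from sequencing read proportions per bin multiplied by bin number.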

Protein stability index: each site, then its substitutions
V23: S 3.22 | D 3.01 | F 3.83 | H 1.19 | G 3.31 | P 2.45 | R 1.41 | K 2.38 | N 2.32 | L 2.76 | Q 1.96 | A 2.21
S22: R 2.97
A24: C 4.82 | P 2.53 | G 2.39 | N 2.01 | M 1.8

Variants of: B2
Assay: as above
Settings: c terminus: a fixed tail appended

Protein stability index: each site, then its substitutions
G17: P 1.29 | Y 1.84 | L 1.49 | Q 2.37 | S 1.59 | T 1.06 | N 1.48 | A 1.51 | E 1.55 | H 2.5 | M 1.65 | C 2.87 | D 1.84
E12: C 1.6 | G 2.66 | N 1.81 | R 2.34 | Y 2.44 | V 1.06 | K 1.59 | S 1.61 | Q 2.42 | T 2.33 | F 1.95 | P 3.16 | M 2.43 | A 2.97 | H 2.32 | W 2.48 | D 2.18
Y15: L 3.19 | M 2.54 | G 1.55 | D 2.37 | K 2.62 | P 3.04 | Q 2.61 | A 2.57 | H 1.88 | W 1.67 | E 2.9 | R 2.67 | T 2.08 | S 2.15 | N 2.31 | I 2 | V 1.69 | C 1.93
M5: C 2.87 | E 3.67 | G 3.53 | K 3.05 | N 3.75 | Y 2.71 | Q 3.25 | H 2.76 | P 2.54 | F 1.79 | W 2.11 | T 2.98 | I 1.08 | L 4.9 | D 3.99 | A 3.14 | R 2.87 | V 2.2 | S 3.08
K2: W 3.22 | R 1.4 | D 3.15 | E 3.43 | G 3.06 | H 3.23 | A 1.89 | T 2.54 | S 2.44 | V 2.04 | N 3.62 | Q 2.27 | Y 1.87 | P 2.62 | C 2.23 | I 2.81 | F 2.51 | L 2.62
Q3: Y 1.84 | R 1.7 | C 1.42 | E 2.3 | W 2.53 | D 2.26 | T 1.85 | S 2.35 | G 3.49 | K 1.96 | I 2.17 | N 1.68 | H 1.69 | L 1.75 | A 2.15 | M 1.51 | P 2.85 | F 1.97
S16: K 1.7 | T 1.56 | Q 1.91 | Y 1.76 | C 2.1 | I 2.62 | N 1.98 | P 2 | L 2.08 | M 2.24 | A 2.15 | F 3.1 | G 2.14 | D 1.86 | H 1.41 | R 1.36
A1: D 3.46 | Y 2.1 | E 3.37 | T 2.8 | V 2.07 | P 3.02 | C 1.86 | G 2.39 | L 2.44 | H 2.72 | M 1.34 | F 1.04 | K 2.68 | S 2.82 | Q 2.52 | R 2.69 | W 2.44 | N 2.1 | I 1.42
I4: K 2.38 | Q 2.3 | T 2.9 | N 2.58 | E 3.46 | R 2.07 | M 1.9 | A 2.39 | L 1.35 | G 2.89 | H 2.04 | C 2.6 | P 3.39 | Y 2.48 | S 2.99 | D 2.92 | F 3 | V 2.42
E7: Y 2.21 | R 2.55 | Q 1.86 | P 2.93 | T 1.96 | V 2.97 | C 1.71 | M 1.5 | K 2.55 | A 2.04 | H 1.7 | W 3.34 | S 1.67 | N 1.9 | I 2.35 | G 2.1 | L 1.38 | D 1.68
E6: W 2.12 | C 1.73 | F 2.01 | K 1.89 | Y 1.61 | G 3.01 | Q 1.77 | V 2.54 | R 2.48 | A 2.25 | N 2.12 | D 3.17 | T 1.76 | I 2.61 | S 2.47 | H 2.21 | M 3.07 | P 2.16
K10: H 1.25 | T 1.43 | D 3.55 | F 1.13 | N 1.32 | E 3.15 | I 1.92 | L 1.96 | C 1.6 | G 2.48 | Y 2.14 | V 2.64 | Q 1.67 | R 3.13 | M 1.99 | S 1.81 | A 1.91 | P 3.79 | W 1.96
M14: I 1.54 | S 1.66 | N 1.99 | V 1.71 | K 1.71 | H 1.87 | W 2.02 | G 2.43 | L 2.17 | Y 1.25 | E 2.54 | C 1.98 | D 3.4 | A 2.25 | F 1.77 | Q 2.11 | T 1.63 | P 3.88
F13: N 4.04 | Y 2.96 | K 3.12 | R 3.52 | W 1.79 | T 3.57 | L 2.26 | Q 3.12 | D 4.6 | H 4.01 | C 2.96 | E 4.3 | G 3.94 | P 3.66 | M 1.86 | V 1.67 | A 4.23 | S 4.24
Y9: M 3.43 | H 3.61 | V 3.1 | S 3.9 | C 2.31 | W 2.18 | D 3.83 | G 3.84 | I 2.02 | P 3.78 | T 3.87 | F 2.26 | Q 4.41 | E 4.34 | N 4.24 | R 3.84 | K 3.57 | L 2.67 | A 3.9
V18: E 2.78 | H 1.87 | C 1.92 | D 1.88 | L 2.12 | A 2.04 | P 2.5 | Q 2.34 | K 2.72 | S 2.07 | R 1.54 | M 1.75 | G 2.12 | I 1.69 | N 2.02
M11: Y 2.68 | H 3.56 | P 3.85 | C 2.43 | Q 3.2 | R 3.42 | T 2.9 | F 2.26 | N 3.98 | S 2.37 | E 3.9 | G 3.28 | A 1.42 | V 1.9 | K 3.44 | D 4.33 | I 3.35 | W 2.22
T8: G 1.41 | R 1.84 | S 2.39 | V 1.89 | Q 2.19 | K 2.85 | E 2.69 | I 1.28 | P 3.46 | W 2.71 | Y 1.92 | L 2.67 | C 1.52 | H 2.54 | N 2.42 | A 1.63 | F 1.64
